In paper PMC8231982 (Molecules, 2021):

T1: wild-type cyanovirin-N (WT CV–N) ( (cyanobacterial lectin), UniProt P81180 1-101)
T1 construct: also called WT CV–N monomer; monomeric CV–N
T1 sequence: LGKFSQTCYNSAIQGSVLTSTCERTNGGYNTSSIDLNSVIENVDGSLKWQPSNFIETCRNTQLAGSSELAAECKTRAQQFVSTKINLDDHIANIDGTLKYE


Legend:
Settings in all cases: both partners purified
[1] = molecular target: T2, HA H3 top domain ( (Figure 2 shows HA of …, UniProt P03437)); assay: ELISA
T2 construct: source: HEK293T, pTT5 vector, purified via His-tag on Ni-NTA

[2] = molecular target: T2, HA H3 top domain; assay: SPR
[3] = molecular target: T1, wild-type cyanovirin-N (WT CV–N); assay: SPR

Row | Binder | Kd [1] [nM] | Kd [2] [nM] | koff [2] [s⁻¹] | kon [2] [M⁻¹ s⁻¹] | Kd [3] [nM]
1 | HC19 Fab, anti-influenza HA (Fab, V domains shown, also called anti-HA HC19; HC19 anti-influenza Fab; source: HEK293-6E, transient transfection, purified from supernatant (protein A, SEC)) VH: QVQLKESGPGLVAPSQSLSITCTVSGFLLISNGVHWVRQPPGKGLEWLGVIWAGGNTNYNSALMSRVSISKDNSKSQVFLKMKSLQTDDTAMYYCARDFYDYDVFYYAMDYWGQGTSVTVSS VL: QAVVTQESALTTSPGETVTLTCRSSTGAVTTSNYANWVQEKPDHLFTGLIGGTNNRAPGVPARFSGSLIGDKAALTITGAQTEDEAIYFCALWYSNHWVFGGGTKLTVL | 12.5 | 64 | 0.0231 | 360000 | 
2 | HIV-1 gp140 trimer, Clade A 92 UG 037.8 (domain or fragment) not shown |  |  |  |  | 120
